In PMC13042586, “ATP13A2 is involved in intracellular polyamine transport in lung epithelial cells” (FEBS Open Bio, 2025) one finds K0.5 data, which are given here for 1 protein.

Substrate in this data set: NCCCCNCCCN
The data set can be described thus: polyamine-dependent ATPase activity (Pi release, molybdate), Hill fit. Type of data set: biochemical, Homo sapiens. Particulars: microsomes of overexpressing H441 cells, 2 mM ATP, 5 mM MgCl2, 20 mM Tris-HCl pH 8.0, 10% glycerol, 1 mM DTT, 37 °C, 30 min, Hill coefficient n = 1, constant printed as Kd but from ATPase stimulation. The text has this: polyamine-dependent ATPase activity (Pi release, molybdate), Hill fit on ATP13A2 | Polyamine dependence of ATP13A2 was fitted to the Hill equation

B1: ATP13A2 (Homo sapiens) (protein)
chain: MSADSSPLVGSTPTGYGTLTIGTSIDPLSSSVSSVRLSGYCGSPWRVIGYHVVVWMMAGIPLLLFRWKPLWGVRLRLRPCNLAHAETLVIEIRDKEDSSWQLFTVQVQTEAIGEGSLEPSPQSQAEDGRSQAAVGAVPEGAWKDTAQLHKSEEAVSVGQKRVLRYYLFQGQRYIWIETQQAFYQVSLLDHGRSCDDVHRSRHGLSLQDQMVRKAIYGPNVISIPVKSYPQLLVDEALNPYYGFQAFSIALWLADHYYWYALCIFLISSISICLSLYKTRKQSQTLRDMVKLSMRVCVCRPGGEEEWVDSSELVPGDCLVLPQEGGLMPCDAALVAGECMVNESSLTGESIPVLKTALPEGLGPYCAETHRRHTLFCGTLILQARAYVGPHVLAVVTRTGFCTAKGGLVSSILHPRPINFKFYKHSMKFVAALSVLALLGTIYSIFILYRNRVPLNEIVIRALDLVTVVVPPALPAAMTVCTLYAQSRLRRQGIFCIHPLRINLGGKLQLVCFDKTGTLTEDGLDVMGVVPLKGQAFLPLVPEPRRLPVGPLLRALATCHALSRLQDTPVGDPMDLKMVESTGWVLEEEPAADSAFGTQVLAVMRPPLWEPQLQAMEEPPVPVSVLHRFPFSSALQRMSVVVAWPGATQPEAYVKGSPELVAGLCNPETVPTDFAQMLQSYTAAGYRVVALASKPLPTVPSLEAAQQLTRDTVEGDLSLLGLLVMRNLLKPQTTPVIQALRRTRIRAVMVTGDNLQTAVTVARGCGMVAPQEHLIIVHATHPERGQPASLEFLPMESPTAVNGVKDPDQAASYTVEPDPRSRHLALSGPTFGIIVKHFPKLLPKVLVQGTVFARMAPEQKTELVCELQKLQYCVGMCGDGANDCGALKAADVGISLSQAEASVVSPFTSSMASIECVPMVIREGRCSLDTSFSVFKYMALYSLTQFISVLILYTINTNLGDLQFLAIDLVITTTVAVLMSRTGPALVLGRVRPPGALLSVPVLSSLLLQMVLVTGVQLGGYFLTLAQPWFVPLNRTVAAPDNLPNYENTVVFSLSSFQYLILAAAVSKGAPFRRPLYTNVPFLVALALLSSVLVGLVLVPGLLQGPLALRNITDTGFKLLLLGLVTLNFVGAFMLESVLDQCLPACLRRLRPKRASKKRFKQLERELAEQPWPPLPAGPLR
notes: full-length with C-terminal TEV site, Halo tag and 6xHis (tags kept; ATP13A2-Halo, theoretical mass 165 K), adenovirus-mediated overexpression in NCI-H441 cells, microsome fraction
As for B1, the K0.5 is 1.00 mM.
